What was measured:
[1] = limited in vitro trypsin proteolysis of purified protein; conditions: glycan lost; control: wild-type mNEU1
[2] = anti-NEU1 immunoblot, Phoenix-A lysates; conditions: glycan lost; control: wild-type mNEU1
[3] = 4-MU-NANA activity, Phoenix-A lysates, PPCA coexpressed; conditions: glycan lost; control: wild-type mNEU1
[4] = anti-NEU1 immunoblot, transduced NEU1-deficient fibroblasts; conditions: glycan lost; control: wild-type mNEU1
[5] = 4-MU-NANA activity, neu1-/- fibroblasts, PPCA cotransduced; conditions: glycan lost; control: wild-type mNEU1 coexpressed with PPCA
[6] = 4-MU-NANA activity, neu1-/- fibroblasts, endogenous PPCA only; conditions: glycan lost; control: wild-type mNEU1

murine NEU1 (mNEU1): N180D (mut1)
decreases: stability_or_folding [1] | expression_or_secretion [2]

murine NEU1 (mNEU1): N337D (mut2)
decreases: enzymatic_activity, percent_of_wt [3] | expression_or_secretion [4]
no change: stability_or_folding [1] | expression_or_secretion [2] | enzymatic_activity [5]

murine NEU1 (mNEU1): N346D (mut3)
decreases: enzymatic_activity, percent_of_wt [3] | expression_or_secretion [4] | enzymatic_activity, percent_of_wt [6]
no change: stability_or_folding [1] | expression_or_secretion [2]

murine NEU1 (mNEU1): N372D (mut4)
no change: stability_or_folding [1] | enzymatic_activity, percent_of_wt [3] | expression_or_secretion [4] | enzymatic_activity, percent_of_wt [6] | expression_or_secretion [2] | enzymatic_activity [5]
